Source: publication PMC12562343, “Modular Virus-like Particles for Antigen Presentation: Comparing Genetic Fusion and Click-Chemistry for Purification” (International Journal of Molecular Sciences, 2025)

What was measured:
[1] = target: HBc-pAzF (HBc ending at Val149 with p-azidophenylalanine in place of Ala80) (Hepatitis B virus genotype D, serotype ayw) (UniProt P03146); assay: SEC; analytical HPLC-SEC of urea-dissociated samples: purified HBc VLPs after incubation with 4 M urea, and AEX eluates in 2 M urea; capsid to dimers
[2] = target: the molecule itself; assay: as above

Q: With “HBc-pAzF (HBc ending at Val149 with p-azidophenylalanine in place of Ala80) (from UniProt P03146 1-149) (domain or fragment)” as the molecule, how does the stoichiometry N [1] read?
A: 2

B1: truncated Hepatitis B core antigen (HBc) ending at Val149 (domain or fragment)
chain: MDIDPYKEFGATVELLSFLPSDFFPSVRDLLDTASALYREALESPEHCSPHHTALRQAILCWGELMTLATWVGVNLEDPASRDLVVSYVNTNMGLKFRQLLWFHISCLTFGRETVIEYLVSFGVWIRTPPAYRPPNAPILSTLPETTVV
notes: Hepatitis B core antigen (capsid protein), HBV genotype D, serotype ayw, truncated variant ending at Val149; Forms dimers that assemble into VLPs; no tag is mentioned; also called HBc149; unmodified HBc; source: E. coli BL21(DE3), purified (AMS precipitation, AEX native or under dissociating conditions, HIC)
Q: B1 was tested. Which “stoichiometry N” value [2] did it give?
A: 2
